Where no end group is shown, it is not given here. carboxyfluorescein = carboxyfluorescein at the N-terminus
Target: α‐Synuclein (human, UniProt P37840 1-140)
Assay: fluorescence polarisation
Settings: both partners purified

Binder	Ka
carboxyfluorescein-VNWKKILGKIIKVVK [carboxyfluorescein‐labeled LL‐III]	19000 M⁻¹
H-VNWKKILGKIIKVVK-NH2 [antimicrobial peptide LL‐III]	37000 M⁻¹
